Data set [1] addresses T1, XerA (Pab0255) (Pyrococcus abyssi, UniProt Q9V1P5 1-286).
T1 sequence: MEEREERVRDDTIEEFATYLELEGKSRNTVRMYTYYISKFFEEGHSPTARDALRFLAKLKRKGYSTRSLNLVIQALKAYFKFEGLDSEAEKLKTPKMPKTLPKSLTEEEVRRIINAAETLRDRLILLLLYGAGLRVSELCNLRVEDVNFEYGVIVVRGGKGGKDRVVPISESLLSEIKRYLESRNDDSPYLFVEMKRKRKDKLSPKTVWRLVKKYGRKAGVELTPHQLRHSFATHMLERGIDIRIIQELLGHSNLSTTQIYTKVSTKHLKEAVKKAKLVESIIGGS
Description: EMSA; 20 C; 0.5 ug poly(dIdC); EMSA: 0.5 uM labeled DNA, 50 mM Tris pH 7.5, 30 mM NaCl, 0.5 ug poly(dIdC).poly(dIdC), 20 ul, 30 min at 20 or 65 C; native PAGE in TGE at 4 C. As to conditions: protein: recombinant; tags: N-terminal His6 (MHHHHHH, from forward primer); label: 5'-32P on top strand; blunt. (In general: Mobility shift assays separate free from complexed probe on a gel.)

The target in data set [2] is T1, XerA (Pab0255). The experiment in a line: EMSA; 65 C; 0.5 ug poly(dIdC); EMSA: 0.5 uM labeled DNA, 50 mM Tris pH 7.5, 30 mM NaCl, 0.5 ug poly(dIdC).poly(dIdC), 20 ul, 30 min at 20 or 65 C; native PAGE in TGE at 4 C. As to conditions: protein: recombinant; tags: N-terminal His6 (MHHHHHH, from forward primer); label: 5'-32P on top strand; blunt.

The source of these data is PMC2958812, “Evidence for a Xer/dif System for Chromosome Resolution in Archaea”.

B1: attP (SSV1 minimal) (dsDNA)
DNA 1: GTTAACTATCTTTTCCGCCTCCGGAGCCGGAGGTCCCGTGTTG
DNA 2: CAACACGGGACCTCCGGCTCCGGAGGCGGAAAAGATAGTTAAC
Consider B1, for which the binding signal was 0.25 complex formation relative to dif-Pab (4 fold less) in the data set with XerA (Pab0255) [1] and 0.125 complex formation relative to dif-Pab (8 fold less) with XerA (Pab0255) [2].

B2: dif-Pab (dsDNA)
DNA 1: GTTAACTATATTGGATATAATCGGCCTTATATCTAAAGTGTTG
DNA 2: CAACACTTTAGATATAAGGCCGATTATATCCAATATAGTTAAC
Turning to B2, the results for the binding signal with XerA (Pab0255) [1] and with XerA (Pab0255) [2] were 4 fold complex formation vs attP and 8 fold complex formation vs attP, respectively.
